Test [1] addresses T1, Recombinant Human DLL4 (R&D Systems Cat#1506-D4/CF) (human, UniProt Q9NR61 27-524).
T1 construct: Bought recombinant protein; also called delta-like protein 4; Delta-like 4
Description: MSD Multispot ECL, antigen spotted on plate, Fab in solution; blank spot of the row 424.

Test [2] concerns the target T2, rHuman EGF R/Fc Chimera, CF (R&D Systems Cat#344-ER) (human, UniProt P00533 25-645).
T2 construct: Bought recombinant Fc chimera; also called epidermal growth factor receptor; Fc part of the bought chimera not given
The test is described as above.

The target of test [3] is T3, rHuman P-Cadherin/Fc Chimera, CF (R&D Systems Cat#861-PC) (human, UniProt P22223 108-654).
T3 construct: Bought recombinant Fc chimera; Fc part of the bought chimera not given
Described as above.

The target in test [4] is T4, rHuman Erythropoietin R/Fc Chimera, CF (R&D Systems Cat#963-ER) (human, UniProt P19235 25-250).
T4 construct: Bought recombinant Fc chimera; also called EPO R; EPO R/Fc; Fc part of the bought chimera not given
T4 sequence (looked up): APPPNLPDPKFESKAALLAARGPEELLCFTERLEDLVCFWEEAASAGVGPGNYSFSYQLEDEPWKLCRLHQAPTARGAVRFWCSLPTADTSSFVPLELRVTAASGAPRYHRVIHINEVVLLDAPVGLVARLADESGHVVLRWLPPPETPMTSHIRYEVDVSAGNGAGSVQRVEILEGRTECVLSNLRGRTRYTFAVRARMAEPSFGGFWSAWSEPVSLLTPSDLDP
The description is as above.

Test [5] addresses T5, rHuman HGF R/c-MET/Fc Chimera, CF (R&D Systems Cat#358-MT/CF) (human, UniProt P08581 25-932).
T5 construct: Bought recombinant Fc chimera; also called HGF R/Fc; hepatocyte growth factor receptor; Fc part of the bought chimera not given
The description is as above.

Test [6] has as its target T6, rHuman Notch-1/Fc Chimera, CF (R&D Systems Cat#3647-TK) (human, UniProt P46531 19-526).
T6 construct: Bought recombinant Fc chimera; Fc part of the bought chimera not given
The test is described as above.

Test [7] has as its target T1, Recombinant Human DLL4 (R&D Systems …). In words: MSD Multispot ECL, antigen spotted on plate, Fab in solution; blank spot of the row 240.
For test [8], the target named is T2, rHuman EGF R/Fc Chimera, CF (R&D …). The description is as above.
Test [9] deals with T3, rHuman P-Cadherin/Fc Chimera, CF (R&D …). The test is described as above.
For test [10], the target named is T4, rHuman Erythropoietin R/Fc Chimera, CF …. The description is as above.
In test [11] the target is T5, rHuman HGF R/c-MET/Fc Chimera, CF (R&D …). Described as above.
The target of test [12] is T6, rHuman Notch-1/Fc Chimera, CF (R&D …). The description is as above.
Test [13] deals with T7, rHuman P-Cadherin/Fc Chimera, CF (R&D Systems Cat#861-PC) (human, UniProt P22223 108-654).
T7 construct: Bought reagent; Fc part of the bought chimera not given
Description: ECL (MSD) multispot binding assay, antigen spotted on the plate, Fab in solution; blank spot of this well 213.

The target of test [14] is T8, Recombinant Human DLL4 (R&D Systems Cat#1506-D4/CF) (human, UniProt Q9NR61 27-524).
T8 construct: Bought recombinant protein; also called rHuman DLL4; delta-like protein 4
The description is as above.

In test [15] the target is T9, rHuman Erythropoietin R/Fc Chimera, CF (R&D Systems Cat#963-ER) (human, UniProt P19235 25-250).
T9 construct: Bought reagent; also called EPO R/Fc; EPO R; Fc part of the bought chimera not given
T9 sequence (looked up): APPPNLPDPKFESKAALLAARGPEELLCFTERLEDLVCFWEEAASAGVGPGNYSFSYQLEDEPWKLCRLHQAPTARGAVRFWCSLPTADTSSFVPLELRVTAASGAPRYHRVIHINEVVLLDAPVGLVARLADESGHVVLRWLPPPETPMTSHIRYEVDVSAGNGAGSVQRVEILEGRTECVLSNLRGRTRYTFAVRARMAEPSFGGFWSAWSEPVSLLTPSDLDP
The description is as above.

The target in test [16] is T10, rHuman Notch-1/Fc Chimera (human, UniProt P46531 19-526).
T10 construct: R&D Systems Cat#3647-TK; not shown: Fc of the bought R&D Systems chimera
Description: ECL (MSD) multispot assay, antigen spotted; blank spot of this row 223.

The target of test [17] is T11, rHuman P-Cadherin/Fc Chimera (human, UniProt P22223 108-654).
T11 construct: R&D Systems Cat#861-PC; not shown: Fc of the bought R&D Systems chimera
The description is as above.

In test [18] the target is T12, rHuman EGF R/Fc Chimera (human, UniProt P00533 25-645).
T12 construct: not shown: Fc of the bought R&D Systems chimera
Described as above.

Test [19] deals with T10, rHuman Notch-1/Fc Chimera. In words: ECL (MSD) multispot assay, antigen spotted; blank spot of this row 284.
The target in test [20] is T13, Recombinant Human DLL4 (delta-like protein 4) (human, UniProt Q9NR61 27-524).
T13 construct: Bought recombinant protein (R&D Systems Cat#1506-D4/CF); also called rHuman DLL4
The test is described as above.

The target in test [21] is T11, rHuman P-Cadherin/Fc Chimera. The description is as above.
A further test addresses T14, rHuman CD44/Fc Chimera (human, UniProt P16070 21-220).
T14 construct: not shown: Fc of the bought R&D Systems chimera
The test is described as above.

The target in another test is T15, rHuman ErbB2/Fc Chimera (human, UniProt P04626 23-652).
T15 construct: not shown: Fc of the bought R&D Systems chimera
Described as above.

The target of test [22] is T12, rHuman EGF R/Fc Chimera. The description is as above.
The target of test [23] is T13, Recombinant Human DLL4 (delta-like …). In words: ECL (MSD) multispot binding assay; value equals DLL4 signal over blank of Table 91.
The target is the same in test [24]. In words: ELISA, DLL4 coated on plate.
For test [25] the target is unchanged. In words: ECL (MSD) multispot assay, antigen spotted; blank spot of this row 236.
Test [26] deals with T11, rHuman P-Cadherin/Fc Chimera. The test is described as above.
Test [27] concerns the target T12, rHuman EGF R/Fc Chimera. Described as above.

Here are results for 5 molecules from patent US20120316071A1 (published 2012).

T5 sequence (P08581 25-932, change not shown): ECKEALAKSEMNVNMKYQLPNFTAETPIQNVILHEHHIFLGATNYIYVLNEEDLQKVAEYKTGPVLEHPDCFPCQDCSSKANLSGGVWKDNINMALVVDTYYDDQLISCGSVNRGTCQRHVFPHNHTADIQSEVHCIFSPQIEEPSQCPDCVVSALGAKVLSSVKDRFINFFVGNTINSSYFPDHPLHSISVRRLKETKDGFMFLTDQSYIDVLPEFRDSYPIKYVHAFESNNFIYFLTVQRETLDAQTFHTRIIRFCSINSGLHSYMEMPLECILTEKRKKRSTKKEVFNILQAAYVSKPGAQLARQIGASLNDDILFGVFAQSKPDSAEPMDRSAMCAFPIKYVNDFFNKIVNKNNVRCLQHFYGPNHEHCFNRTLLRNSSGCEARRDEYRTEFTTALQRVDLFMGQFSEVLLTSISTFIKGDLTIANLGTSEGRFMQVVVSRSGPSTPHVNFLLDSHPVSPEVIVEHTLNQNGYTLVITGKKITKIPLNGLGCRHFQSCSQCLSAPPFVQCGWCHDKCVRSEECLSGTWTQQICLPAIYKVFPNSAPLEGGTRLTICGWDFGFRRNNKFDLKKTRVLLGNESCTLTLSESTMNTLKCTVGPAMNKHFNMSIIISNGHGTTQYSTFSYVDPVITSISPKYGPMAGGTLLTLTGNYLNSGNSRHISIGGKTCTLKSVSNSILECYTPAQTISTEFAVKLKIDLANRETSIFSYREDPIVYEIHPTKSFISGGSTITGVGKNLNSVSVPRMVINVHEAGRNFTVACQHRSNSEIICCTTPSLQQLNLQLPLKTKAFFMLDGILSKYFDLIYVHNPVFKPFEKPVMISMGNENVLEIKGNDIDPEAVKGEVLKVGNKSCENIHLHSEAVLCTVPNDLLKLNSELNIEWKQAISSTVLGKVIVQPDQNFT

B1: Fab VH5-51_IGHD5-18*01>3_IGHJ4*01 G100K/G104T (KT) & V3-4_IGLJ1*01 (Fab, V domains shown)
VH: EVQLVQSGAEVKKPGESLKISCKGSGYSFTSYWIGWVRQMPGKGLEWMGIIYPGDSDTRYSPSFQGQVTISADKSISTAYLQWSSLKASDTAMYYCARRKYSYTYDYFDYWGQGTLVTVSS
VL: QTVVTQEPSFSVSPGGTVTLTCGLSSGSVSTSYYPSWYQQTPGQAPRTLIYSTNTRSSGVPDRFSGSILGNKAALTITGAQADDESDYYCVLYMGSGISYVFGTGTKVTVL
notes: Fab made in E. coli; VH cloned into Plasmid A (CH1, His6 and Flag tags), lambda VL into Plasmid E (lambda CL); also called H:KT & L:wt; KT double mutant
On to B1, for which the ECL signal in test [1] amounted to 36400; in [2], 852; in [3] it was 319; in test [4] it was 554; in test [5], 838; in test [6], 543. The ECL signal was determined as 45100 in test [7]; 915 in test [8]; 346 in test [9]; 497 in [10]; 936 in [11]; 507 in [12].

B2: Fab VH5-51_IGHD5-18*01>3_IGHJ4*01 G100K/G104T (KT) & V3-4_IGLJ1*01 (Fab, V domains shown)
VH: EVQLVQSGAEVKKPGESLKISCKGSGYSFTSYWIGWVRQMPGKGLEWMGIIYPGDSDTRYSPSFQGQVTISADKSISTAYLQWSSLKASDTAMYYCARRKYSYTYDYFDYWGQGTLVTVSS
VL: QTVVTQEPSFSVSPGGTVTLTCGLSSGSVSTSYYPSWYQQTPGQAPRTLIYSTNTRSSGVPDRFSGSILGNKAALTITGAQADDESDYYCVLYMGSGISYVFGTGTKVTVL
notes: Tested as a Fab expressed in E. coli; The heavy chain variable region was cloned into Plasmid A (CH1 constant region, His6 and Flag tags); The lambda light chain variable region was cloned into Plasmid E (lambda CL); also called H:KT & L:wt; KT double mutant
With B2, the ECL signal in test [13] was found to be 226; in test [14] it was 32700; in test [15], 421.

B3: Fab VH5-51_IGHD5-18*01>3_IGHJ4*01 G100K/G104T S84L & V3-4_IGLJ1*01 (Fab, V domains shown)
VH: EVQLVQSGAEVKKPGESLKISCKGSGYSFTSYWIGWVRQMPGKGLEWMGIIYPGDSDTRYSPSFQGQVTISADKSISTAYLQWLSLKASDTAMYYCARRKYSYTYDYFDYWGQGTLVTVSS
VL: QTVVTQEPSFSVSPGGTVTLTCGLSSGSVSTSYYPSWYQQTPGQAPRTLIYSTNTRSSGVPDRFSGSILGNKAALTITGAQADDESDYYCVLYMGSGISYVFGTGTKVTVL
notes: Fab made in E. coli (heavy chain vector with CH1, His6 and Flag tags; lambda CL vector)
For the molecule B3, the ECL signal in [16] stood at 410; in test [17] it was 320; in the test with rHuman EGF R/Fc Chimera [18], 864.

B4: Fab VH5-51_IGHD5-18*01>3_IGHJ4*01 G100K/G104T D109A & V3-4_IGLJ1*01 (Fab, V domains shown)
VH: EVQLVQSGAEVKKPGESLKISCKGSGYSFTSYWIGWVRQMPGKGLEWMGIIYPGDSDTRYSPSFQGQVTISADKSISTAYLQWSSLKASDTAMYYCARRKYSYTYDYFAYWGQGTLVTVSS
VL: QTVVTQEPSFSVSPGGTVTLTCGLSSGSVSTSYYPSWYQQTPGQAPRTLIYSTNTRSSGVPDRFSGSILGNKAALTITGAQADDESDYYCVLYMGSGISYVFGTGTKVTVL
notes: as for B3
In the case of B4, the ECL signal stood at 443 in test [19]; 21800 in [20]; 406 in [21]; 538 with rHuman CD44/Fc Chimera; 1100 with rHuman ErbB2/Fc Chimera; 791 in the test with rHuman EGF R/Fc Chimera [22]. In [23], the ECL signal-to-blank ratio was 76.8. The “ELISA (Signal-Noise)” value in [24] turned out to be 0.

B5: Fab VH5-51_IGHD5-18*01>3_IGHJ4*01 G100K/G104T S84V & V3-4_IGLJ1*01 (Fab, V domains shown)
VH: EVQLVQSGAEVKKPGESLKISCKGSGYSFTSYWIGWVRQMPGKGLEWMGIIYPGDSDTRYSPSFQGQVTISADKSISTAYLQWVSLKASDTAMYYCARRKYSYTYDYFDYWGQGTLVTVSS
VL: QTVVTQEPSFSVSPGGTVTLTCGLSSGSVSTSYYPSWYQQTPGQAPRTLIYSTNTRSSGVPDRFSGSILGNKAALTITGAQADDESDYYCVLYMGSGISYVFGTGTKVTVL
notes: as for B3
On to B5, for which the ECL signal is 8890 in test [25], 362 in test [26] and 805 in the test with rHuman EGF R/Fc Chimera [27]. Besides, the ECL signal-to-blank ratio in test [23] stood at 37.7. Moreover, in test [24], the “ELISA (Signal-Noise)” value came to 0.02.
